The text below walks through data of patent US20200079854A1 (Johns Hopkins, published 2020).

B1: KRAS_G12CV_A3_c15 (scFv)
scFv: DIQMTQSPSSLSASVGDRVTITCRASQDVNTAVAWYQQKPGKAPKLLIYSASFLYSGVPSRFSGSRSGTDFTLTISSLQPEDFATYYCQQSYGSGSPWTFGQGTKVEIKRTGGGSGGGGSGGGASEVQLVESGGGLVQPGGSLRLSCAASGFNIVGGGIHWVRQAPGKGLEWVAKIYPQGDYTYYADSVKGRFTISADTSKNTAYLQMNSLRAEDTAVYYCSRDSSYLAFDYWGQGTLVTVSS
B2: KRAS_G12CDV_A3_c118 (scFv)
scFv: DIQMTQSPSSLSASVGDRVTITCRASQDVNTAVAWYQQKPGKAPKLLIYSASFLYSGVPSRFSGSRSGTDFTLTISSLQPEDFATYYCQQYYYPPITFGQGTKVEIKRTGGGSGGGGSGGGASEVQLVESGGGLVQPGGSLRLSCAASGFNVSHTGMHWVRQAPGKGLEWVAVVGPGKGYTYYADSVKGRFTISADTSKNTAYLQMNSLRAEDTAVYYCSRKTYYAFDYWGQGTLVTVSS
B3: KRAS_G12CDV_A3_c19 (scFv)
scFv: DIQMTQSPSSLSASVGDRVTITCRASQDVNTAVAWYQQKPGKAPKLLIYSASFLYSGVPSRFSGSRSGTDFTLTISSLQPEDFATYYCQQTYYSPWTFGQGTKVEIKRTGGGSGGGGSGGGASEVQLVESGGGLVQPGGSLRLSCAASGFNIRSYAMHWVRQAPGKGLEWVAQVGPGKGYTYYADSVKGRFTISADTSKNTAYLQMNSLRAEDTAVYYCSRNFQSTSHAFDYWGQGTLVTVSS

In this experiment the target is T1, KRAS wt(7-16) peptide … with HLA-A3 and b2M on cells (human).
T1 construct: peptide-pulsed T2A3 cells in flow cytometry
The experiment in a line: flow cytometry, phage-displayed scFv on peptide-pulsed T2A3 cells (FIG. 6). (A flow cytometer gives signals particle by particle.)
Description: Cells were stained with 10 μL of precipitated phage per 100 μL of cells, washed and stained with rabbit anti-M13 antibody, then washed and stained with anti-Rabbit-PE antibody. Cells were stained with a live/dead Near-IR dye, washed, and analyzed by an LSRII flow cytometer.
The pulsed cells were pelleted, washed once in cold stain buffer (PBS containing 0.5% BSA, 2 mM EDTA, and 0.1% sodium azide), and resuspended in 100 μL of stain buffer. Phage staining was performed on ice with 10 uL (approximately 1×10⁹) phage for 1 hour in 100 uL total volume, followed by one 4 mL wash in cold stain buffer. Cells were then stained with 1 uL of rabbit anti-M13 antibody (Pierce, Rockford, Ill.) in 100 uL total volume on ice for 1 hour and washed once with 4 mL of cold stain buffer. Cells were stained with anti-rabbit-PE (Biolegend) on ice for 1 hour in 100 uL total volume, followed by incubation with LIVE/DEAD Fixable Near-IR Dead Cell Stain (Thermo Fisher) for 10 min at room temperature per manufacturer's instructions. Cells were washed once in 4 mL of stain buffer followed by resuspension in 300 uL of stain buffer before analysis. Stained cells were analyzed using an LSRII flow cytometer (Becton Dickinson, Mansfield, Mass.).
With B1, the binding result was “no binding”.
Turning to B2, the binding result is reported as “no binding”.
The result for B3 reads “no binding”.
